Where two headings read alike, the source gives them in different places.
T1: 4H331-bH
T1 chain: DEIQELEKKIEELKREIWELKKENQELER

T2: 4H3354-bH
T2 chain: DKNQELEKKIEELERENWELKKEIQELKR

T3: 4H338-bH
T3 chain: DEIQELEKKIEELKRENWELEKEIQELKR

T4: 4H3427-bH
T4 chain: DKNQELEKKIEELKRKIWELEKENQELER

T5: 4H3606-bH
T5 chain: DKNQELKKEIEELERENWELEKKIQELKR

T6: 4H370-bH
T6 chain: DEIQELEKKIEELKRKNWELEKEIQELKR

T7: 4H3782-bH
T7 chain: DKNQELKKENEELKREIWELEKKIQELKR

T8: 4H3843-bH
T8 chain: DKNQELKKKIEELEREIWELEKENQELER

T9: 4H3855-bH
T9 chain: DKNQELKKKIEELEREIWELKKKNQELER

T10: 4H4001-bH
T10 chain: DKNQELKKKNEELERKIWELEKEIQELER

T11: 4H454-bH
T11 chain: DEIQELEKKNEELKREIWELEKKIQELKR

T12: 4H462-bH
T12 chain: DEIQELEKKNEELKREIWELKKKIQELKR

T13: 4H568-bH
T13 chain: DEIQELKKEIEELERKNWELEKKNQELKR

T14: 4H607-bH
T14 chain: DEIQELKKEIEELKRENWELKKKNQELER

T15: 4H687-bH
T15 chain: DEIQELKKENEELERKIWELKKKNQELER

T16: 4H717-bH
T16 chain: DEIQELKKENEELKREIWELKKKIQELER

T17: 4H72-bH
T17 chain: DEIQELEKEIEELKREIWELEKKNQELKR

T18: 4H754-bH
T18 chain: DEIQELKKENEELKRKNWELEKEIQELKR

T19: 4H754-bN
T19 chain: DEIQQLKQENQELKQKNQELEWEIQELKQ

T20: 4H797-bH
T20 chain: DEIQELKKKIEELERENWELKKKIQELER

T21: 4H883-bH
T21 chain: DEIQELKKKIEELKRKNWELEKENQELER

T22: 4H908-bH
T22 chain: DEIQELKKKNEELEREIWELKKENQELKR

T23: 4H918-bH
T23 chain: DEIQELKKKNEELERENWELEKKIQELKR

T24: 4H953-bH
T24 chain: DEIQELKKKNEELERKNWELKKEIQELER

T25: 4H967-bH
T25 chain: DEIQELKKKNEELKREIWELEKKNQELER


What was measured:
Test in all cases: two-hybrid library CCNG1;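 note: natural log of median RNA to DNA barcode read ratio; higher means stronger binding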
4H331-bH = target: T1, 4H331-bH
4H3354-bH = target: T2, 4H3354-bH
4H338-bH = target: T3, 4H338-bH
4H3427-bH = target: T4, 4H3427-bH
4H3606-bH = target: T5, 4H3606-bH
4H370-bH = target: T6, 4H370-bH
4H3782-bH = target: T7, 4H3782-bH
4H3843-bH = target: T8, 4H3843-bH
4H3855-bH = target: T9, 4H3855-bH
4H4001-bH = target: T10, 4H4001-bH
4H454-bH = target: T11, 4H454-bH
4H462-bH = target: T12, 4H462-bH
4H568-bH = target: T13, 4H568-bH
4H607-bH = target: T14, 4H607-bH
4H687-bH = target: T15, 4H687-bH
4H717-bH = target: T16, 4H717-bH
4H72-bH = target: T17, 4H72-bH
4H754-bH = target: T18, 4H754-bH
4H754-bN = target: T19, 4H754-bN
4H797-bH = target: T20, 4H797-bH
4H883-bH = target: T21, 4H883-bH
4H908-bH = target: T22, 4H908-bH
4H918-bH = target: T23, 4H918-bH
4H953-bH = target: T24, 4H953-bH
4H967-bH = target: T25, 4H967-bH

interaction score (4H370-bH)	interaction score (4H3782-bH)	interaction score (4H3843-bH)	interaction score (4H4001-bH)	interaction score (4H462-bH)	interaction score (4H568-bH)	interaction score (4H607-bH)	interaction score (4H687-bH)	interaction score (4H72-bH)	interaction score (4H797-bH)	interaction score (4H883-bH)	interaction score (4H918-bH)	interaction score (4H953-bH)	interaction score (4H967-bH)	Binder	also measured
-0.325	-0.0752	0.837	0.891	0.445	-1.97	-1.89	-0.531	0.733	-0.0604	0.193	-1.11	-0.344	-0.299	DEIQELEKKIEELKREIWELKKENQELER [4H331-bH]	interaction score (4H331-bH): 1.45; interaction score (4H3354-bH): -0.721; interaction score (4H338-bH): 0.213; interaction score (4H3427-bH): 1.6; interaction score (4H3606-bH): 0.467; interaction score (4H3855-bH): 0.334; interaction score (4H454-bH): -0.0612; interaction score (4H717-bH): -1.1; interaction score (4H754-bH): -1.42; interaction score (4H754-bN): -1.25; interaction score (4H908-bH): -0.0604
1.69	-0.967	0.511	0.174	-0.116	1.11	-0.729	-0.48	-0.306	-0.0905	0.484	-0.633	-1.36	1.21	DKNQELKKEIEELERENWELEKKIQELKR [4H3606-bH]	interaction score (4H3606-bH; mean of both orientations): -0.593

Source: publication PMC10397247
